One experiment addresses PACAP27 (UniProt P18509). As to the kind of experiment: ELISA, biotinylated peptide on streptavidin plate. For orientation: In an ELISA, binding on a coated surface is turned into a signal by an enzyme label.
Experiment [1] concerns the target PACAP38 (UniProt P18509). The experiment can be described thus: ELISA, biotinylated peptide on streptavidin plate.
In another experiment the target is VIP (UniProt P01282). The experiment can be described thus: ELISA, biotinylated peptide on streptavidin plate.
Experiment [2] addresses PACAP38 (UniProt P18509). The experiment can be described thus: competition ELISA, biotinylated PACAP38 to coated PAC1-Fc.
The target of experiment [3] is PACAP38 (UniProt P18509). The experiment can be described thus: competition ELISA, biotinylated PACAP38 to coated VPAC1-Fc.
For experiment [4], the target named is PACAP38 (UniProt P18509). The experiment can be described thus: competition ELISA, biotinylated PACAP38 to coated VPAC2-Fc.
Another experiment concerns the target CGRP. The experiment can be described thus: cell-based or functional assay.

Sequence of PACAP38 (P18509 132-169 limits assumed): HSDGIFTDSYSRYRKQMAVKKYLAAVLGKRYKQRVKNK
Sequence of VIP (P01282 125-152 limits assumed): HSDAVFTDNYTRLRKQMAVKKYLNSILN
Sequence of PACAP27 (P18509 132-158 limits assumed): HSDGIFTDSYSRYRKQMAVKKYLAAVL

As for ALD-1910 (antibody), the EC50 with PACAP27 was 0.15 nM; in the experiment with PACAP38 [1] it was 0.07 nM; with VIP, 1.02 nM. In addition, the figures for the IC50 with PACAP38 [2], with PACAP38 [3] and with PACAP38 [4] were 4.89 nM, 0.65 nM and 1.58 nM, respectively.

Fremanezumab (antibody): in the experiment with CGRP, the IC50, inhibition of cAMP production in SK-N-MC cells came to 40 nM.

Turning to LY-3451838 (antibody), the concentration giving a half-maximal response (EC50) with PACAP27 came to 0.11 nM; in the experiment with PACAP38 [1], 0.06 nM; with VIP, 9.58 nM. In addition, the results for the half-inhibitory concentration (IC50) with PACAP38 [2], with PACAP38 [3] and with PACAP38 [4] were 6.46 nM, 1.34 nM and 1.42 nM, respectively.

The EC50 is the midpoint of the concentration-response curve. Low values mean higher potency in that assay, high ones lower potency in that assay. The term IC50 denotes the concentration that gives 50% inhibition. A low value points to higher potency.
